± gives the uncertainty stated by the source.
Test: self-splicing fitness, log relative to wild type (ln ratio); higher = more splicing; Tetrahymena group I intron in knt gene, E. coli kanamycin selection, DiMSum; sequences stand for … in CUCUCU…GGAGGGAAAAGUUAUCAGGCAUGCACCUGGUAGCUAGUCUUUAAACCAAUAGAUUGCAUCGGUUUAAAAGGCAAGACCGUCAAAUUGCGGGAAAGGGGUCAACAGCCGUUCAGUACCAAGUCUCAGGGGAAACUUUGAGAUGGCCUUGCAAAGGGUAUGGUAAUAAGCUGACGGACAUGGUCCUAACCACGCAGCCAAGUCCUAAGUCAACAGAUCUUCUGUUGAUAUGGAUGCAGUUCACAGACUAAAUGUCGGUCGGGGAAGAUGUAUUCUUCUCAUAAGAUAUAGUCGGACCUCUCCUUAAUGGGAGCUAGCGGAUGAAGUGAUGCAACACUGGAGCCGCUGGGAACUAAUUUGUAUGCGAAAGUAUAUUGAUUAGUUUUGGAGUACUCGUGGUCG
Outline: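 Library with all eight P1ex-region intron nucleotides randomised, intron inside the knt kanamycin-resistance gene on pET-22b(+), in E. coli BL21(DE3). Cells grew overnight at 37°C or 30°C on LB agar with or without 25 μg/mL kanamycin (plus 100 μg/mL carbenicillin, 50 μM IPTG, 0.2% rhamnose), in six replicate transformations. Pooled colonies were amplicon-sequenced on Illumina HiSeq 2500. DiMSum fitness is the error-weighted combination of wild-type-normalised replicate fold changes, kanamycin versus none.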

Sequence	self-splicing fitness (ln) (30 °C)	self-splicing fitness (ln) (37 °C)
UUCUAGCAAUAUUACGACUG	-1.64 ± 0.17	-0.702 ± 0.2
AAUAAGCAAUAUUACGCGUA	-1.25 ± 0.14	-0.929 ± 0.13
AAUGAGCAAUAUUACGACGG	-3.86 ± 0.19	-2.3 ± 0.21
GGACAGCAAUAUUACGCUCG	-0.123 ± 0.086	-0.0297 ± 0.11
GAUAAGCAAUAUUACGGCGC	0.0448 ± 0.13	-0.881 ± 0.13
AAAUAGCAAUAUUACGGAGC	-3.73 ± 0.3	-2.26 ± 0.17
AUCGAGCAAUAUUACGCAUC	-2.77 ± 0.48	
AACUAGCAAUAUUACGACGC	-0.567 ± 0.1	-0.205 ± 0.15
CGUUAGCAAUAUUACGCACC	-1.94 ± 0.35	-1.79 ± 0.48
UAGCAGCAAUAUUACGCUGC	-2.86 ± 0.35	-2.2 ± 0.32
ACAAAGCAAUAUUACGGGUU	-2.54 ± 0.087	-1.23 ± 0.09
ACUAAGCAAUAUUACGGAUC	-2.21 ± 0.13	-1.3 ± 0.14
AGGGAGCAAUAUUACGCUGU	-2.11 ± 0.26	-3.01 ± 0.47
CAUCAGCAAUAUUACGUAUC	-1.9 ± 0.092	-1.05 ± 0.098
CACCAGCAAUAUUACGGUUC	-2.02 ± 0.065	-1.25 ± 0.085
GGACAGCAAUAUUACGCUCU	-2.19 ± 0.25	
UCCAAGCAAUAUUACGUGUC	-3.42 ± 0.12	-2.94 ± 0.12
CGUUAGCAAUAUUACGCGAU	-2.89 ± 0.16	-3.12 ± 0.32
GCGCAGCAAUAUUACGCUCG	-3.65 ± 0.38	-2.89 ± 0.34
GUCUAGCAAUAUUACGUGGA	-2.12 ± 0.23	-2.69 ± 0.24
GAGAAGCAAUAUUACGCGCU	-2.03 ± 0.13	-1.49 ± 0.13
CAAAAGCAAUAUUACGAAGG	-1.87 ± 0.11	-0.758 ± 0.13
UAGUAGCAAUAUUACGACGU	-1.23 ± 0.11	-0.175 ± 0.095
CGGCAGCAAUAUUACGGCUC	-0.945 ± 0.11	-0.28 ± 0.15
GGAUAGCAAUAUUACGUGCG	-0.974 ± 0.094	-0.046 ± 0.12
GCUAAGCAAUAUUACGCCUG	-0.523 ± 0.16	-1.55 ± 0.22

Sequence	self-splicing fitness (ln) (30 °C)	self-splicing fitness (ln) (37 °C)
GUGCAGCAAUAUUACGAGGC	-1.83 ± 0.31	-2.43 ± 0.26
CUACAGCAAUAUUACGAAGG	-1.22 ± 0.1	-1.49 ± 0.14
GAACAGCAAUAUUACGGUGU	-2.02 ± 0.066	-0.373 ± 0.069
UAUCAGCAAUAUUACGCAAG	-0.949 ± 0.074	0.273 ± 0.097
GAUCAGCAAUAUUACGGCGG	-2.43 ± 0.13	-2.06 ± 0.17
UCGUAGCAAUAUUACGACGA	-3.15 ± 0.3	-0.365 ± 0.11
AUUUAGCAAUAUUACGCAGG	-3.36 ± 0.38	
CGUUAGCAAUAUUACGAUUU	-2.51 ± 0.27	-1.66 ± 0.25
CCUCAGCAAUAUUACGGGUU	-4.07 ± 0.21	-2.02 ± 0.15
AAACAGCAAUAUUACGCAUA	-2 ± 0.096	-0.419 ± 0.073
GUAAAGCAAUAUUACGAAGG	-3.13 ± 0.13	-1.92 ± 0.17
UGGGAGCAAUAUUACGCUCA		-2.72 ± 0.28
UGCAAGCAAUAUUACGCCUC	-1.98 ± 0.46	-1.23 ± 0.23
GCGGAGCAAUAUUACGUAUU	-3.85 ± 0.25	-2.48 ± 0.41
UCUAAGCAAUAUUACGUCGU	-1.19 ± 0.1	-0.695 ± 0.12
GUUCAGCAAUAUUACGUGCA	-0.645 ± 0.11	-0.382 ± 0.11
GAAAAGCAAUAUUACGUUUG	-2.71 ± 0.097	-2.02 ± 0.15
CGCGAGCAAUAUUACGGCUA	-1.23 ± 0.15	-1.98 ± 0.16
UUGUAGCAAUAUUACGACAU	-0.918 ± 0.015	-0.322 ± 0.034
UGUCAGCAAUAUUACGGCCA	-0.139 ± 0.11	-0.162 ± 0.12
GAGGAGCAAUAUUACGGGCC	-2.4 ± 0.4	
CCAUAGCAAUAUUACGUUUU	-3.58 ± 0.16	-2.75 ± 0.17
GAUGAGCAAUAUUACGAGCG	-2.62 ± 0.44	
GUUAAGCAAUAUUACGGUCG	-1.32 ± 0.066	-0.767 ± 0.094
GUAGAGCAAUAUUACGUGCU		-1.29 ± 0.39
UUUGAGCAAUAUUACGCAGG	-2.99 ± 0.21	-1.34 ± 0.18

Sequence	self-splicing fitness (ln) (30 °C)	self-splicing fitness (ln) (37 °C)
ACCCAGCAAUAUUACGCCCC	-1.3 ± 0.12	-0.142 ± 0.14
GGGAAGCAAUAUUACGGGGA	-1.49 ± 0.2	-2.65 ± 0.29
GCAUAGCAAUAUUACGUUUU	-3.61 ± 0.19	-1.82 ± 0.19
GAGCAGCAAUAUUACGACAA	-1.41 ± 0.3	-2.31 ± 0.2
CCGCAGCAAUAUUACGCUAG	-1.53 ± 0.1	-2.05 ± 0.12
UGGCAGCAAUAUUACGUGAG	-0.544 ± 0.047	0.438 ± 0.077
CAGCAGCAAUAUUACGGAGU	-3.15 ± 0.12	-2.49 ± 0.15
GGUAAGCAAUAUUACGUAAC	-1.86 ± 0.13	-0.278 ± 0.15
ACCGAGCAAUAUUACGCCCA	-1.68 ± 0.29	-3.03 ± 0.3
GUCGAGCAAUAUUACGGGUG	-4.13 ± 0.25	-2.11 ± 0.19
UAUUAGCAAUAUUACGCACC	-2.77 ± 0.26	-0.337 ± 0.2
GCCAAGCAAUAUUACGCUCU	-0.234 ± 0.1	-0.0648 ± 0.12
GCGCAGCAAUAUUACGAUAA	-1.85 ± 0.11	-0.604 ± 0.14
GUAAAGCAAUAUUACGUGGA	-2.51 ± 0.095	-1.38 ± 0.073
GUACAGCAAUAUUACGCGGA	-2.49 ± 0.21	-0.988 ± 0.15
UAACAGCAAUAUUACGUUCC	-2.23 ± 0.11	-2.28 ± 0.18
AUCAAGCAAUAUUACGUUAA	-3.14 ± 0.11	-1.87 ± 0.093
UGUAAGCAAUAUUACGACAC	-2.51 ± 0.41	
AUAGAGCAAUAUUACGGGGC	-3.43 ± 0.43	-2.51 ± 0.41
AAAAAGCAAUAUUACGACCA	-0.0993 ± 0.079	-0.734 ± 0.09
ACAUAGCAAUAUUACGAACG	-1.2 ± 0.17	-0.114 ± 0.28
UUACAGCAAUAUUACGUAUG	-0.997 ± 0.054	-0.53 ± 0.068
GCUAAGCAAUAUUACGUAAU	-0.775 ± 0.088	-0.189 ± 0.11
AUUAAGCAAUAUUACGUCGG	-2.34 ± 0.18	-1.2 ± 0.22
UCAUAGCAAUAUUACGCAUC	-3.59 ± 0.3	-3.1 ± 0.33
